Source: the nanobody polyreactivity screen of Harvey et al. (2022)

Assay: yeast display, Sf9 membrane polyspecificity reagent, FACS + sequencing; frameworks hold sequencing errors
Procedure, shortened: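 Nanobodies came from a synthetic yeast display library in Saccharomyces cerevisiae BJ5465, induced with galactose for 36–48 hours and stained for 1 hour at 4 °C with 10% biotinylated, detergent-solubilized Sf9 membrane reagent. Cells were enriched on streptavidin microbeads and then FACS-sorted, with low and high (top ~1%) gates set on anti-HA fluorescence for expression and streptavidin fluorescence for reagent binding. Each polyreactivity label reflects the gate a clone came from. Genes were amplified by colony PCR, sequenced by MiSeq 2 × 250 and filtered by CDR length.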

| Sequence | polyreactivity (PSR sort gate) |
| --- | --- |
| QVQLVESGGGLVQAGGSLRLSCAASGSTFYYAMGWYRQAPGKEMELVASITFSTGSTYYADSVKGRFTISRDNAKNTVYLQMNSLKPEDTAVYYCATGVDTYSLTVEHDSWGQGTQVTVSS | low polyreactivity |
| QVQLVESGGGLVQAGGSLRLSCAASGSTFYYNAMGWYRQAPGKEREFVAAITYTGGSTDYADSVKGRFTISRDNAKNTVYLQMNSLKPEDTAVYYCAKGTYGYISTWYDYWGQGTQVTVSS | low polyreactivity |
| QVQLVESGGGLVQAGGSLRLSCAASGSTFYYNAMGWYRQAPGKERELVADISWRGGITYYADSVKGRFTISRDNAKNTVYLQMNSLKPEDTAVYYCAADIYPDWIYLLYGYWGQGTQVTVSS | low polyreactivity |
| QVQLVESGGGLVQAGGSLRLSCAASGSTFYYNAMGWYSQAPGKERELVAAISSDGSTNYADSVKGRFTISRDNAKNTVNLQMNSLKPEDTAVYYCAKKDFYFAPSPGYYRSRDYWGQGTQVTVSS | low polyreactivity |
| QVQLVESGGGLVQAGGSLRLSCAASGSTFYYNTLGWYRQAPGKERELVAAISRSGGSTYYADSVKGRFTISRDNAKNTVYLQMNSLKPEDTAVYYCAARIIGARNLYGYWGQGTQVTVSS | high polyreactivity |
| QVQLVESGGGLVQAGGSLRLSCAASGSTFYYNTMGWYRQAPGKDRELVAAITWTGGSTYYADSVKGRFTISRDNAKNTVYLQMNSLKPEDTAVYYCAAVNWRDEIYDYWGQGTQVTVSS | low polyreactivity |
| QVQLVESGGGLVQAGGSLRLSCAASGSTFYYNVMGWYRQAPGKEREFVAAITQRGGSTYYADSVKGRFTISRDNAKNTVYLQMNSLKPEDTAVYYCAARTRYDFDWGQGTQVTVSS | high polyreactivity |
| QVQLVESGGGLVQAGGSLRLSCAASGSTFYYYAMGWYRPAPGKERELVAAINYNGGSTHYADSVKGRFTISRDNAKNTVYLQMNSLKPEDTAVYYCAAKYRLSYTHGYWGQGTQVTVSS | low polyreactivity |
| QVQLVESGGGLVQAGGSLRLSCAASGSTFYYYAMGWYRQAPGKEREFVAAISGGDGTTSYADSVKGRFTISRDNAKNTVYLQMNSLKPEDTAVYYCATPYTSYLYGYDYWGQGTQVTVSS | low polyreactivity |
| QVQLVESGGGLVQAGGSLRLSCAASGSTFYYYAMGWYRQAPGKEREFVASISSRGTSTYYADSVKGRFTISRDNAKNTVYLQMNRLKPEDTAVYYCAARGWGPTRAYDYWGQGTQVTVSS | high polyreactivity |
| QVQLVESGGGLVQAGGSLRLSCAASGSTFYYYAMGWYRQAPGKERELVAAINYNGGSTHYADSVKGRFTISRDNAKNTVYFQMNSLKPEDTAVYYCAAKYRLSYTHGYWGQGTQVTVSS | low polyreactivity |
| QVQLVESGGGLVQAGGSLRLSCAASGSTFYYYAMGWYRQAPGKERELVAAIRSSGGSTYYADSVKGRFTISRDNAKNTVYLQMNSLKPEDTAVYYCIHYLSTYHGTFTYGYWGQGTQVTVSS | low polyreactivity |
| QVQLVESGGGLVQAGGSLRLSCAASGSTFYYYAMGWYRQAPGKERELVATIDSGTSTYYADSVKGRFTISRDNAKNTVYLQMISLKPEDTAVYYCAAKTWSWSYGYNYWGQGTQVTVSS | low polyreactivity |
| QVQLVESGGGLVQAGGSLRLSCAASGSTFYYYAMGWYRQAPGKERELVATISSGSSTNYADSVKGRFTISRDNAKNTVYLQMNCLKPEDTAVYYCAADRWYITLSIDATISYDYWGQGTQVTVSS | low polyreactivity |
| QVQLVESGGGLVQAGGSLRLSCAASGSTFYYYAMGWYRQAPGKERELVAVIRDSDGSTDYADSVKGRFTISRDKAKNTVYLQMNSLKPEDTAVYYCAATNVRGVYYWGQGTQVTVSS | high polyreactivity |
| QVQLVESGGGLVQAGGSLRLSCAASGSTFYYYAMGWYRQAPGKVRELVATISWSGDSTYADSVKGRFTISRDNAKNTVYLQMNSLKPEDTAVYYCATSGDWWGFRYVYWGQGTQVTVSS | low polyreactivity |
| QVQLVESGGGLVQAGGSLRLSCAASGSTFYYYGMGWYRQAPGKERELVATISGSGGSTYYADSVKGRFTITRDNAKNTVYLQMNSLTQEDTSVYYCNKDVLPSQTYSNVYWGQGTQVSVSS | low polyreactivity |
| QVQLVESGGGLVQAGGSLRLSCAASGSTFYYYVMGWYRQAPGKERELVAAISRGGGSTYYADSVKGRFTISRDNAKNTVYLQMNSLKPEDTAVYYCAAASYYVEGDYWGQGTQVTVSS | low polyreactivity |
| QVQLVESGGGLVQAGGSLRLSCAASGSTFYYYVMGWYRQAPGKERELVAVISKSGGSTRYADSVKGRFTISRDNAKNTVYLQMNSLKPEDTAVYYCAADGLRLVPGYKYDYWGQGTQVTVSS | high polyreactivity |
| QVQLVESGGGLVQAGGSLRLSCAASGSTGYYAMGWYRQAPGKERELVAAISYRGASTYYADSVKGRFTISRDNAKNTVYLQMNSLKPEDTAVYYCAALRQERVKYGYWGQGTQVTVSS | high polyreactivity |
| QVQLVESGGGLVQAGGSLRLSCAASGSTIATYAMGWYRQAPGKERELVATISSSGSGTYYADSVKGRFTISRDNAKNTVYLQMNSLKPEDTAVYYCAVDSRGKLGISGEYGYWGQGSQVTVSS | low polyreactivity |
| QVQLVESGGGLVQAGGSLRLSCAASGSTIDINTKGWYRQAPGKEREFVAAITDSDDSTYYADSVKGRFTISRDNAKNTVYLQMNSLKPEDTAVYYCATDPDYVLYRTAYYEYDYWGQGTQVTVSS | low polyreactivity |
| QVQLVESGGGLVQAGGSLRLSCAASGSTIDVYTMGWYRQAPGKERELVAAISRGSSTYYADSVKGRFTISRDNAKNTVYLQMNSLKPEDTAVYYCNAVTSRKYRRYGYGYWGQGTQVTVSS | high polyreactivity |
| QVQLVESGGGLVQAGGSLRLSCAASGSTIDVYTMGWYRQAPGKERELVAAISRGSSTYYADSVKGRFTISRDNAKYTVYVQMNSLKPEDTAVYYCNAVTSRKYRRYGYGYWGQGTQVTVSS | high polyreactivity |
| QVQLVESGGGLVQAGGSLRLSCAASGSTIDYYAMGWYRQAPGKERELVAGIDSAGSTNYADSVKGRFTISRDNAKNTFYLQMNSLKTGRYRGLYCNVGKTITTYAFTTFDYWGQGTHVTVSS | low polyreactivity |
| QVQLVESGGGLVQAGGSLRLSCAASGSTIEPYAMGWYRQAPGKERELLAAITLSAGSTYYADSVKGRFTISRDYAKNTVYLQMNSLNPEDTAVYYCNADYGYNNQLLWGYYGWSSDHWGQGTQVTVSS | low polyreactivity |
| QVQLVESGGGLVQAGGSLRLSCAASGSTIFAYAMGWYRQAPGKERELVAAIRRGGTSTYYADSVKGRFTISRDNAKNTVYLQMNSLKPEDTAVYYCNKAYITKRGVSGSNDYWGQGTQVTVSS | low polyreactivity |
| QVQLVESGGGLVQAGGSLRLSCAASGSTIFGNVMGWYRQAPGKERELVAAISKTGGNTYYADSVKGRFTISRDNAKNTVYLQMNSLKPEDTAVYYCNALRGDWRDMGYWGQGTQVTVSS | high polyreactivity |
| QVQLVESGGGLVQAGGSLRLSCAASGSTIGPYAMGWSRQAPGKERELVAAITISGDSTNYADSVKGRFTISRDNAKNTVYLQMLSLKPEDTAVYYCAAAYYWLQSWYDYWGQGTLVTVSS | low polyreactivity |
| QVQLVESGGGLVQAGGSLRLSCAASGSTIGRNAMGWDRQAPGNERELVASITDSSGSPNYADSVKGRFTISRDNAKNSVYLQMHSLKPEDTAVYYCATGYYYYTRYRYHTKYYSWGQGTQVTVSS | high polyreactivity |
